The results in this text go back to paper PMC10636607 (Cell Reports, 2023).

Test [1] concerns the target T1, biotinylated C-terminal αTSR domain of P. falciparum circumsporozoite protein (P. falciparum, UniProt Q7K740).
T1 construct: also called P. falciparum CSP
Nature of the test: BLI. Particulars: both partners purified.

In test [2] the target is biotinylated influenza hemagglutinin (HA) from H1N1 A/California/07/2009 (Influenza A virus A/California/07/2009 …, UniProt C3W5X2, strain, biotinylated). In words: BLI. The following applies: both partners purified.

T1 sequence (Q7K740 310-375): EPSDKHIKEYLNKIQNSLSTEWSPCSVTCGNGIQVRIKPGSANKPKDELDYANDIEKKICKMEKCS

B1: Fab234 (WT) (Fab, V domains shown)
VH: EVQLVESGGGLVKPGGSLRLSCAASGFNFSTHIMNWVRQAPGKGLEWVSSISSSGTYIYYADSMKGRFTISRDNPKNSLYLQMNSLRAEDTAVYYCARARGFIQFHYYMDVWGKGTTVAVSS
VL: SYVLTQPPSVSVAPGKTARITCGGNNIGSKSVHWHQQRPGQAPVLVVYDDKIRPSGIPERFSGSNSGNTATLIISRVEAGDEADYYCQVWHSSSDPVVFGGGTKLTVL
Consider B1, for which the binding result in test [1] was “binds”.

B2: 5J8 Fab (WT) (Fab, V domains shown)
VH: EVQLVESGPGLVKPSDILSLTCAVSGYSISSNYYWGWIRQPPGKGLEWIGSIYHSGSTYYKPSLESRLGISVDTSKNQFSLKLSFVSAADTAVYYCARHVRSGYPDTAYYFDKWGQGTLVTVSS
VL: SYVLTQPPSVSVAPGETARISCGGNNIGTKVLHWYQQTPGQAPVLVVYDDSDRPSGIPERFSGSNSGNTATLTISRVEVGDEADYYCQVWDISTDQAVFGGGTKLTVL
notes: source: ExpiCHO cells, transiently co-transfected, purified (CaptureSelect CH1-XL)
Regarding B2, the binding result in test [2] is “binds”.
